# Assay results: patent US20100196361A1, “Method of inhibition of vascular development using an antibody” (DYAX CORP., priority 2003, published 2010)
# T1: human Tie1-Fc fusion protein (Homo sapiens, UniProt P35590)
# T1 construct: selected against the Tie1 extracellular domain fused to human Fc or to a histidine purification tag
# T1 sequence (P35590 22-759 limits assumed): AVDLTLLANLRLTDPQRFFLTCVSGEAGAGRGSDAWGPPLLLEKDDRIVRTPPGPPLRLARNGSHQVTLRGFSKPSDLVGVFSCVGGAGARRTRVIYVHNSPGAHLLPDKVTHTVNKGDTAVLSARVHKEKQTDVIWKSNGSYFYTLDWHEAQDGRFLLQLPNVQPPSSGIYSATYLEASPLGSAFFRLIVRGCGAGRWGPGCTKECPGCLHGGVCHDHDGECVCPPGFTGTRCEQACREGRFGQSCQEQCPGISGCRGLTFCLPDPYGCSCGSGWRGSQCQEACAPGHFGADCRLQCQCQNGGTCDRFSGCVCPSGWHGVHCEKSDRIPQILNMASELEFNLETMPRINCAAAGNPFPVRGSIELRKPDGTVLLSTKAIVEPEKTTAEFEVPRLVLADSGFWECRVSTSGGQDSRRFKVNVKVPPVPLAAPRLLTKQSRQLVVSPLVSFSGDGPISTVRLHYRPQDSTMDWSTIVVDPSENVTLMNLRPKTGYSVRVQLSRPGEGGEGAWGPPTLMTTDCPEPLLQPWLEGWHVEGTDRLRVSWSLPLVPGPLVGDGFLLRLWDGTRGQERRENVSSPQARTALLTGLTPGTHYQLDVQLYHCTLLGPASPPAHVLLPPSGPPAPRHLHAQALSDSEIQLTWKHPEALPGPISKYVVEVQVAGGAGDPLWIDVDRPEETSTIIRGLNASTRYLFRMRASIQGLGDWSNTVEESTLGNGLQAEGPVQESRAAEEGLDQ
# T2: human Tie1 Fc (Homo sapiens, UniProt P35590)
# T2 construct: selected against the Tie1 extracellular domain fused to human Fc or to a histidine purification tag
# T2 sequence (P35590 22-759 limits assumed): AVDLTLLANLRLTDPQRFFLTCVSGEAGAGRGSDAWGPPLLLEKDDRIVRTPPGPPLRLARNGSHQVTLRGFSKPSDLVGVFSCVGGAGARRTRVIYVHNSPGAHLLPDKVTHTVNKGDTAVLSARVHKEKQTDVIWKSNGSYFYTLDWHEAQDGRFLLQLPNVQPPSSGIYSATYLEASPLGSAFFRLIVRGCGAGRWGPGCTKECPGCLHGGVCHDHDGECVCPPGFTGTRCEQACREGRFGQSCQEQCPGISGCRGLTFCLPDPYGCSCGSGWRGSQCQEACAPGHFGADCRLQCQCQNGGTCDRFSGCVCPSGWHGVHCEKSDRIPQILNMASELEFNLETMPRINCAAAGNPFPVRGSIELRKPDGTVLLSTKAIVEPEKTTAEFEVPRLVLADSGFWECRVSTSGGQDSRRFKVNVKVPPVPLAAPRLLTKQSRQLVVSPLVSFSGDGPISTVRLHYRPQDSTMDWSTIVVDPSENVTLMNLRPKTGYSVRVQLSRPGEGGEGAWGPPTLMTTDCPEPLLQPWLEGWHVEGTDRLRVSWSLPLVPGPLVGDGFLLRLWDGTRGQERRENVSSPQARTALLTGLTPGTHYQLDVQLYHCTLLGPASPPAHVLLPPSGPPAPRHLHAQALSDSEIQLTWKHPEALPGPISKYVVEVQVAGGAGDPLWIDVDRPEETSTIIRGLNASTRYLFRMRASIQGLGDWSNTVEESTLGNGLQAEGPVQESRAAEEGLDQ
# How the values were obtained:
# [1] = molecular target: Tie1 (Homo sapiens, UniProt P35590); assay: Competition with E3 for binding to Tie1
# [2] = molecular target: T1, human Tie1-Fc fusion protein; assay: BIAcore 3000 affinity analysis of Fab and IgG; format: binding
# Protocol: Affinity analysis of the Fab and IgGs was performed using surface plasmon resonance using a BIAcore 3000 instrument. For this analysis both dimeric (Tie1-Fc fusion protein) and monomeric (Tie1-HIS) versions of the extracellular domain of the Tie1 were used. The sensor chips used in these experiments were CM5 (dextran-coated) which allow immobilization of proteins to the chip via standard amine coupling chemistries. The concentration of flowed antibody was determined using a surface plasmon resonance based method. Using a high-density protein A sensor chip, under mass transport limited conditions, the response signal is dependent only on the concentration of the antibody in the sample under test. This approach allows a precise determination of the antibody concentration, a parameter important for accurate determination of the KD.
# 470 RUs of Tie1 HIS protein were coated on a CM5 sensor chip and 5, 20, 100, and 500 nM of the Fab flowed over the chip at four different flow rates ([…]), rates in which the system is not mass transport limited. Kinetic data was typically determined using a range of analyte concentrations and three different chip coating densities. The data from the lowest coating density that gave a good signal was typically chosen, this was often in a range from 50-100 RUs. Using such low coating densities allowed the sensor curves to be fit using BIAEVALUATION™ 3.0 software to a 1:1 model, often even when using a bivalent analyte (IgG or Tie1-Fc fusion protein). For bivalent analytes, when fit to a 1:1 model was not possible, the curves were fit using a 2:1 model.
# The anti-Tie1 antibodies described here bind to both human and mouse Tie1 molecules. The binding of the anti-Tie1 Fab to mouse Tie1-Fc fusion protein was compared with the binding of the anti-Tie1 Fab to human Tie1-Fc fusion protein. In both of these experiments the Tie1-Fc fusion protein was immobilized on the sensor chip and the anti Tie-1 Fab served as the analyte. Under these experimental conditions the anti-Tie1 Fab has very similar KD (˜3 nM) values for both the human and mouse Tie1-Fc fusion proteins (Table 9). Under conditions that are likely to mimic those used in the animal efficacy experiments, i.e. Tie1-Fc immobilized to the CM5 sensor chip and anti-Tie1 used as the analyte, the measured KD was 0.2 nM.
# [3] = molecular target: T2, human Tie1 Fc; assay: BIAcore, Fab over Tie1/Fc coated on CM5 chip; format: binding; details: Fab analyte
# Text: To evaluate if the binding behaviour had been affected in any way by the conversion of the somatic mutations back to germline residues, the parental and the germlined E3b antibodies were produced and tested in Biacore as Fab fragments. Here, by contrast to what was done for the IgGs (see Example 28), and in order to measure a monovalent interaction, the Fabs were run over the antigen directly coated onto the surface.
# Recombinant human Tie1/Fc was coated on a CM5 chip. The surface of the chip was first activated with a 7-minute pulse of 0.05 M NHS/0.2 M EDC, then Tie1/Fc (2 μg/ml in 10 mM sodium acetate, pH 4.0) was run over the chip surface until 750 RUs were coated on the surface. All flow cells were subsequently deactivated with a 7-minute pulse of 1 M ethanolamine hydrochloride, pH 8.5. All further experiments were performed in HBS buffer.
# The parental and the germlined E3b Fabs were prepared. A series of dilution (50, 25, 12.5, 6.25 and 3.125 nM) was prepared in HBS buffer. Samples were injected at 30 μl/min for 5.3 minutes using the KINJECT™ program. This was followed by a 10-minute dissociation phase, and the remaining Fab was stripped from the surface with a single 18-sec injection of 50 mM NaOH/1 M NaCl.
# Sensorgrams were analyzed using the simultaneous ka/kd fitting program from the BIAEVALUATION™ software 3.1 assuming a 1:1 model.
# Chain of Tie1 (P35590 22-1138): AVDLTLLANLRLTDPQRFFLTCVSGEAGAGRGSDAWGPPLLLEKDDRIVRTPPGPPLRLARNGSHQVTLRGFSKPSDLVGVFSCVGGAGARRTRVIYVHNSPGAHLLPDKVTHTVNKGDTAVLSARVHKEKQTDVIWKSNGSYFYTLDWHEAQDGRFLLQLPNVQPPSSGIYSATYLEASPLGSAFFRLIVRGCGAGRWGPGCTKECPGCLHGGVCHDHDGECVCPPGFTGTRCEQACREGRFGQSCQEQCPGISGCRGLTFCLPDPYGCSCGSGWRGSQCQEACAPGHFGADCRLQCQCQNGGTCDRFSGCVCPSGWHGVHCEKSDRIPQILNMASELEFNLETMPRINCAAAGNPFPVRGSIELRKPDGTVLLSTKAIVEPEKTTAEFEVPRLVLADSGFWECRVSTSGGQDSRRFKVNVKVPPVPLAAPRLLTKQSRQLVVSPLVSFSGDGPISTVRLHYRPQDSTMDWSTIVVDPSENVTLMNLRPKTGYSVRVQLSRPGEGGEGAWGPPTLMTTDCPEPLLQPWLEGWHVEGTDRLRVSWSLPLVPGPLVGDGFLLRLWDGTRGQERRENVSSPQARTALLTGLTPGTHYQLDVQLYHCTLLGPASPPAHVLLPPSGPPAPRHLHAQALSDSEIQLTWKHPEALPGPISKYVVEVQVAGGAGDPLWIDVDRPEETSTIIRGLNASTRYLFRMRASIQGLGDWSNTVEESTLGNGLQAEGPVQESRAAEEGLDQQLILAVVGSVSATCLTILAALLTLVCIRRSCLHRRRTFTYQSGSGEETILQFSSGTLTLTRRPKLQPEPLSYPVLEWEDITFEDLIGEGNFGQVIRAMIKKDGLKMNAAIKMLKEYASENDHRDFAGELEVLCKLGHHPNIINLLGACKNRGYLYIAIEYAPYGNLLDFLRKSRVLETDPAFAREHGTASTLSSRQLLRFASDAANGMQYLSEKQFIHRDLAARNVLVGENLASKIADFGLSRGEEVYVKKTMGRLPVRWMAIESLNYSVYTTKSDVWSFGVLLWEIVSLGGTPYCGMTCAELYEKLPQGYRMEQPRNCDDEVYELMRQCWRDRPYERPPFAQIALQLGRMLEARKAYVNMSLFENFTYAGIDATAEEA
Molecule,competition with E3 for binding to Tie1 [1],also measured
"M0054H10: Tie1-binding antibody; LC SEQ ID NO:448, HC SEQ ID NO:450 (antibody, V domains shown, Antibody) VH: EVQLLESGGGLVQPGGSLRLSCAASGFTFSQYPMIWVRQAPGKGLEWVSVISPSGGHTSYADSVKGRFTISRDNSKNTLYLQMNSLRAEDTAVYYCARIQYYGGAFDIWGQGKMVTVSS VL: QDIQMTQSPATLSLSPGERATLSCRASQSVSIYLAWYQQKPGQAPRLLIYDASNRATDIPARFSGSGSGTDFTLTISSLEPEDFAVYYCQQRSSWPITFGLGTRLEIK",competes with E3 for binding to Tie1,
"E3b Fab: Fab with germlined HC and germlined LC sequence of E3 (antibody, V domains shown) VH: EVQLLESGGGLVQPGGSLRLSCAASGFTFSMYGMVWVRQAPGKGLEWVSVISPSGGNTGYADSVKGRFTISRDNSKNTLYLQMNSLRAEDTAVYYCARAPRGYSYGYYYWGQGTLVTVSS VL: DIQMTQSPSSLSASVGDRVTITCRASQGIGHYLAWYQQKPGKVPKLLIYTASTLQSGVPSRFSGSGSGTDFTLTISSLQPEDVATYYCQQFNSYPHTFGQGTRLEIK",,"Kon [2]: 9300 M⁻¹ s⁻¹; koff [2]: 4.41e-05 s⁻¹; koff ([3]; Human Tie1 Fc coated on CM5): 0.00101 s⁻¹; kon ([3]; Human Tie1 Fc coated on CM5, 750 RU): 136000 M⁻¹ s⁻¹"

# Continued, in another order:
competition with E3 for binding to Tie1 [1],Molecule,also measured
competes with E3 for binding to Tie1,"M0055E10: Tie1-binding antibody; LC SEQ ID NO:492, HC SEQ ID NO:494 (antibody, V domains shown, Antibody) VH: EVQLLESGGGLVQPGGSLRLSCAASGFTFSAYPMFWVRQAPGKGLEWVSVISPSGGQTSYADSVKGRFTISRDNSKNTLYLQMNSLRAEDTAVYYCAKSFSGLAALDFWGQGTLVTVSS VL: QDIQMTQSPATLSLSPGERATLSCRASQSVRTYLGWYQQKHGQAPRLLIYDASNRATGIPARFSGSGSGTDFTLTISSLEPEDFAVYYCQQRSNWPLTFGGGTKVEIK",
competes with E3 for binding to Tie1,"M0060H01: Tie1-binding antibody; LC SEQ ID NO:628, HC SEQ ID NO:630 (antibody, V domains shown, Antibody) VH: EVQLLESGGGLVQPGGSLRLSCAASGFTFSYYPMVWVRQAPGKGLEWVSVIVPSGGFTAYADSVKGRFTISRDNSKNTLYLQMNSLRAEDTAMYYCARKRPGNAFDIWGQGTMVTVSS VL: QDIQMTQSPATLSLSPGERATLSCRASQSVSSYLAWYQQKPGQAPRLLIYDASNRATGIPARFSGSGSGTDFTLTISSLEPEDFAVYYCQQRSNWPVTFGQGTRLEIK",
competes with E3 for binding to Tie1,"M0058F03: Tie1-binding antibody; LC SEQ ID NO:604, HC SEQ ID NO:606 (antibody, V domains shown, Antibody) VH: EVQLLESGGGLVQPGGSLRLSCAASGFTFSDYGMAWVRQAPGKGLEWVSVISPSGGQTAYADSVKGRFTISRDNSKNTLYLQMNSLRAEDTAVYYCATVRWFGAFDYWGQGTLVTVSS VL: QDIQMTQSPSTLSASVGDRVTITCRASQGISNYLAWYQQKPGKVPKLLIYGASNLQSGVSSRFSGSGSATDFTLTISSLQPEDFATYYCQQFNSYPLTFGGGTKVEIK",
